The nature of the data set: Liver serum markers after PFC injection. To be noted: 1 mM per kg BW i.v. over 3 consecutive days, blood 24 h after last injection; individual mice. On the set-up: serum level of ALP (alkaline phosphatase) / serum level of ALT (alanine aminotransferase) / serum level of GLDH (glutamate dehydrogenase) / serum level of AST (aspartate aminotransferase): unit not given here. The data set is classed as in vivo, mouse. On the procedure:
^ConPFCs, ^mNPPFCs (each at 1 mM per kg BW) or saline were injected i.v. over 3 consecutive days. Twenty-four hours after the last injection, mice were killed, and blood samples were withdrawn to determine GLDH, AST, ALP, ALT and bilirubin levels by standard clinical procedures. Furthermore, the liver and spleen were dissected, fixed in formalin and snap frozen. Subsequently, 4-µm cryosections were cut and stained with hematoxylin and eosin as described previously.
Extended Data Fig. 3 Assessment of ^mNPPFC/^ConPFC biodistribution, liver serum markers and histology of liver and spleen. a, Biodistribution of intravenously injected ^mNPPFCs was determined via ^19F MRI measurements at distinct time points after injection (1, 3, 6 and 24 h after injection). Shown are quantification of fluorine signal intensities in the blood, liver and spleen indicating a fast wash-out from the blood accompanied by a strong influx into the liver while signal intensities in the spleen were constant over the entire observation period; a.u. = arbitrary units. b, Serum levels of GLDH (glutamate dehydrogenase), AST (aspartate aminotransferase), ALP (alkaline phosphatase), ALT (alanine aminotransferase) and bilirubin after intravenous application of NaCl as control, ^ConPFCs or ^mNPPFCs. c + d, 4 µm sections of liver (C) and spleen (D) stained with hematoxylin and eosin. Organs were excised and processed for histology 24 h post injection of NaCl (upper row), ^ConPFCs (middle), ^mNPPFCs (lower). Representative liver/spleen images of organs from three different animals are shown. Scale bars indicate 100 µm. Data are mean values ± SD of n = 6 (a), n = 4-6 (b) and n = 6 (c + d) independent experiments. Source data

Several values for one entry are separate records, joined by “and”; a condition that tells them apart may be missing. Identical values can stand only once. Where no end group is shown, it is not given here.

Consider “SLAMFLTHSPEP-GGG-C [Con, reference compound]”, for which the “serum level of ALP (alkaline phosphatase)” value is 5.7 and 16.2 and 33.5 and 13.2 and 6.6 and 3.4; the “serum level of ALT (alanine aminotransferase)” value is 1.6 and 0.9 and 0.6 and 0.8 and 1.3; the “serum level of AST (aspartate aminotransferase)” value was 0.4 and 2 and 3.4 and 0.6 and 3.1 and 2.6; the “serum level of GLDH (glutamate dehydrogenase)” value was 1.19 and 1.21 and 2.18 and 0.14.
As for DFYKPMPNLRITGGGC [mNP], the “serum level of ALP (alkaline phosphatase)” value was 4.3 and 4.6 and 15.5 and 19.1 and 10.5 and 11.8; the “serum level of ALT (alanine aminotransferase)” value is 0.1 and 1 and 0.8; the “serum level of AST (aspartate aminotransferase)” value is 1.5 and 6.8 and 1.6 and 1.4 and 2.5 and 2.3; the “serum level of GLDH (glutamate dehydrogenase)” value was 0.89 and 1.11 and 3.48 and 0.9 and 0.22 and 0.33.

The values above are taken from paper PMC11357992, “Non-invasive mapping of systemic neutrophil dynamics upon cardiovascular injury” (Nature Cardiovascular Research, 2023).
